Results as given in patent US20210388110A1 (published 2021).
Positions count from the first letter of the chain named.

B1: TR01H040-E22Hh/none-Hi-Kn010G3/L0232-k0 (antibody, human IgG1, kappa, L234A L235A, N297A)
heavy: QVQLVESGGGLVQPGRSLRLSCAASGFTFSNAWMHWVRQAPGKGLEWVAQIKDKSQNYATYYAESVKGRFTISRADSKNSIYLQMNSLKTEDTAVYYCRYVHYSASYGVDAWGQGTTVTVSSASTKGPSVFPLAPSSKSTSGGTAALGCLVKDYFPEPVTVSWNSGALTSGVHTFPAVLQSSGLYSLSSVVTVPSSSLGTQTYICNVNHKPSNTKVDKKVEPKSCDKTHTCPPCPAPEAAGGPSVFLFPPKPKDTLMISRTPEVTCVVVDVSHEDPEVKFNWYVDGVEVHNAKTKPREEQYASTYRVVSVLTVLHQDWLNGKEYKCKVSNKALPAPIEKTISKAKGQPREPQVYTLPPSRCELTKNQVSLSCAVKGFYPSDIAVEWESNGQPENNYKTTPPVLDSDGSFFLVSKLTVDKSRWQQGNVFSCSVMHEALHNHYTQKSLSLSPDYKDDDDK
chain: EPKSSDKTHTCPPCPAPELLGGPSVFLFPPKPKDTLMISRTPEVTCVVVDVSHEDPEVKFNWYVDGVEVHNAKTKPREEQYNSTYRVVSVLTVLHQDWLNGKEYKCKVSNKALPAPIEKTISKAKGQPREPQVCTLPPSRDELTKNQVSLWCLVKGFYPSDIAVEWESNGQPENNYKTTPPVLDSDGSFFLYSKLTVDKSRWQQGNVFSCSVMHEALHNRYTQKSLSLSP
light: DIVMTQSPLSLPVTPGEPASISCRSSESLVHSNRNTYLHWYQQKPGQAPRLLIYKVSNRFSGVPDRFSGSGSGTDFTLKISRVEAEDVGVYYCGQGTQVPYTFGQGTKLEIKRTVAAPSVFIFPPSDEQLKSGTASVVCLLNNFYPREAKVQWKVDNALQSGNSQESVTEQDSKDSTYSLSSTLTLSKADYEKHKVYACEVTHQGLSSPVTKSFNRGEC
notes: single-arm
B2: TR01H042-E22Hh/none-Hi-Kn010G3/L0000-k0 (antibody, human IgG1, kappa, L234A L235A, N297A)
heavy: B1 heavy with L11V, R16G
chain: B1 chain
light: B1 light with E27Q
notes: single-arm
B3: TR01H051-E22Hh/none-Hi-Kn010G3/L0000-k0 (antibody, human IgG1, kappa, L234A L235A, N297A)
heavy: B1 heavy with Q56N, I81L, A111I
chain: B1 chain
light: B1 light with E27Q
notes: single-arm
B4: TR01H047-E22Hh/none-Hi-Kn010G3/L0000-k0 (antibody, human IgG1, kappa, L234A L235A, N297A)
heavy: B1 heavy with Q56N, A75D, A111I
chain: B1 chain
light: B1 light with E27Q
notes: single-arm
B5: TR01H040-E22Hh/none-Hi-Kn010G3/TR01L018-k0 (antibody, human IgG1, kappa, L234A L235A, N297A)
heavy: B1 heavy
chain: B1 chain
light: B1 light with R24Q, S25A, L29P, Q42L, A48S, R50Q
notes: single-arm
B6: TR01H040-E22Hh/none-Hi-Kn010G3/L0243-k0 (antibody, human IgG1, kappa, L234A L235A, N297A)
heavy: B1 heavy
chain: B1 chain
light: B1 light with S28P, L29P, S61R
notes: single-arm
B7: TR01H040-E22Hh/none-Hi-Kn010G3/L0233-k0 (antibody, human IgG1, kappa, L234A L235A, N297A)
heavy: B1 heavy
chain: B1 chain
light: B1 light with E27Q, S28E
notes: single-arm
B8: TR01H040-E22Hh/none-Hi-Kn010G3/L0237-k0 (antibody, human IgG1, kappa, L234A L235A, N297A)
heavy: B1 heavy
chain: B1 chain
light: B1 light with E27Q, S28E, L29P, L38I, G94Y
notes: single-arm
B9: TR01H040-E22Hh/none-Hi-Kn010G3/L0262-k0 (antibody, human IgG1, kappa, L234A L235A, N297A)
heavy: B1 heavy
chain: B1 chain
light: B1 light with E27Q, S28P, L29P, G94A
notes: single-arm
B10: TR01H040-E22Hh/none-Hi-Kn010G3/TR01L008-k0 (antibody, human IgG1, kappa, L234A L235A, N297A)
heavy: B1 heavy
chain: B1 chain
light: B1 light with R24Q, S25A, S61R
notes: single-arm
B11: TR01H040-E22Hh/none-Hi-Kn010G3/L0242-k0 (antibody, human IgG1, kappa, L234A L235A, N297A)
heavy: B1 heavy
chain: B1 chain
light: B1 light with L29P, L38I, G94Y
notes: single-arm
B12: TR01H040-E22Hh/none-Hi-Kn010G3/L0236-k0 (antibody, human IgG1, kappa, L234A L235A, N297A)
heavy: B1 heavy
chain: B1 chain
light: B1 light with E27Q, S28E, L29P, S61W, G94Y
notes: single-arm
B13: TR01H043-E22Hh/none-Hi-Kn010G3/L0000-k0 (antibody, human IgG1, kappa, L234A L235A, N297A)
heavy: B1 heavy with A23S, Q56N, A111I
chain: B1 chain
light: B1 light with E27Q
notes: single-arm
B14: TR01H048-E22Hh/none-Hi-Kn010G3/L0000-k0 (antibody, human IgG1, kappa, L234A L235A, N297A)
heavy: B1 heavy with A75D, A111I
chain: B1 chain
light: B1 light with E27Q
notes: single-arm
B15: TR01H046-E22Hh/none-Hi-Kn010G3/L0000-k0 (antibody, human IgG1, kappa, L234A L235A, N297A)
heavy: B1 heavy with A23S, A111Y
chain: B1 chain
light: B1 light with E27Q
notes: single-arm
B16: TR01H040-E22Hh/none-Hi-Kn010G3/L0234-k0 (antibody, human IgG1, kappa, L234A L235A, N297A)
heavy: B1 heavy
chain: B1 chain
light: B1 light with E27Q, S28E, L29P, S61R
notes: single-arm
B17: TR01H040-E22Hh/none-Hi-Kn010G3/TR01L013-k0 (antibody, human IgG1, kappa, L234A L235A, N297A)
heavy: B1 heavy
chain: B1 chain
light: B1 light with R24Q, S25A, Q42L, A48S, R50Q, S61R, L109V, K112E
notes: single-arm
B18: TR01H040-E22Hh/none-Hi-Kn010G3/L0238-k0 (antibody, human IgG1, kappa, L234A L235A, N297A)
heavy: B1 heavy
chain: B1 chain
light: B1 light with S28P, L29P, G94Y
notes: single-arm
B19: TR01H040-E22Hh/none-Hi-Kn010G3/TR01L009-k0 (antibody, human IgG1, kappa, L234A L235A, N297A)
heavy: B1 heavy
chain: B1 chain
light: B1 light with E27Q, Q42L, A48S, R50Q, S61R
notes: single-arm
B20: TR01H040-E22Hh/none-Hi-Kn010G3/L0241-k0 (antibody, human IgG1, kappa, L234A L235A, N297A)
heavy: B1 heavy
chain: B1 chain
light: B1 light with L29P, S61W, G94Y
notes: single-arm
B21: TR01H049-E22Hh/none-Hi-Kn010G3/L0000-k0 (antibody, human IgG1, kappa, L234A L235A, N297A)
heavy: B1 heavy with A75D
chain: B1 chain
light: B1 light with E27Q
notes: single-arm
B22: TR01H040-E22Hh/none-Hi-Kn010G3/TR01L010-k0 (antibody, human IgG1, kappa, L234A L235A, N297A)
heavy: B1 heavy
chain: B1 chain
light: B1 light with E27Q, S61R, L109V, K112E
notes: single-arm
B23: TR01H044-E22Hh/none-Hi-Kn010G3/L0000-k0 (antibody, human IgG1, kappa, L234A L235A, N297A)
heavy: B1 heavy with A23S, A111I
chain: B1 chain
light: B1 light with E27Q
notes: single-arm
B24: TR01H040-E22Hh/none-Hi-Kn010G3/L0250-k0 (antibody, human IgG1, kappa, L234A L235A, N297A)
heavy: B1 heavy
chain: B1 chain
light: B1 light with S25P, E27Q, L29P, L38I, H39Q, G94I
notes: single-arm
B25: TR01H040-E22Hh/none-Hi-Kn010G3/TR01L019-k0 (antibody, human IgG1, kappa, L234A L235A, N297A)
heavy: B1 heavy
chain: B1 chain
light: B1 light with R24Q, S25A, L29P, Q42L, A48S, R50Q, G94Y
notes: single-arm
B26: TR01H040-E22Hh/none-Hi-Kn010G3/TR01L012-k0 (antibody, human IgG1, kappa, L234A L235A, N297A)
heavy: B1 heavy
chain: B1 chain
light: B1 light with E27Q, Q42L, A48S, R50Q, S61R, L109V, K112E
notes: single-arm
B27: TR01H050-E22Hh/none-Hi-Kn010G3/L0000-k0 (antibody, human IgG1, kappa, L234A L235A, N297A)
heavy: B1 heavy with A75D, A111Y
chain: B1 chain
light: B1 light with E27Q
notes: single-arm
B28: TR01H045-E22Hh/none-Hi-Kn010G3/L0000-k0 (antibody, human IgG1, kappa, L234A L235A, N297A)
heavy: B1 heavy with A23S
chain: B1 chain
light: B1 light with E27Q
notes: single-arm
B29: TR01H040-E22Hh/none-Hi-Kn010G3/L0239-k0 (antibody, human IgG1, kappa, L234A L235A, N297A)
heavy: B1 heavy
chain: B1 chain
light: B1 light with L29P, S61R
notes: single-arm
B30: TR01H040-E22Hh/none-Hi-Kn010G3/TR01L015-k0 (antibody, human IgG1, kappa, L234A L235A, N297A)
heavy: B1 heavy
chain: B1 chain
light: B1 light with E27Q, L29P, Q42L, A48S, R50Q
notes: single-arm
B31: TR01H040-E22Hh/none-Hi-Kn010G3/TR01L011-k0 (antibody, human IgG1, kappa, L234A L235A, N297A)
heavy: B1 heavy
chain: B1 chain
light: B1 light with R24Q, S25A, S61R, L109V, K112E
notes: single-arm
B32: TR01H052-E22Hh/none-Hi-Kn010G3/L0000-k0 (antibody, human IgG1, kappa, L234A L235A, N297A)
heavy: B1 heavy with I81L, A111I
chain: B1 chain
light: B1 light with E27Q
notes: single-arm
B33: TR01H040-E22Hh/none-Hi-Kn010G3/L0240-k0 (antibody, human IgG1, kappa, L234A L235A, N297A)
heavy: B1 heavy
chain: B1 chain
light: B1 light with L29P, G94Y
notes: single-arm
B34: TR01H040-E22Hh/none-Hi-Kn010G3/L0235-k0 (antibody, human IgG1, kappa, L234A L235A, N297A)
heavy: B1 heavy
chain: B1 chain
light: B1 light with E27Q, S28E, L29P, G94Y
notes: single-arm
B35: TR01H040-E22Hh/none-Hi-Kn010G3/TR01L016-k0 (antibody, human IgG1, kappa, L234A L235A, N297A)
heavy: B1 heavy
chain: B1 chain
light: B1 light with E27Q, L29P, Q42L, A48S, R50Q, G94Y
notes: single-arm
B36: TR01H041-E22Hh/none-Hi-Kn010G3/L0000-k0 (antibody, human IgG1, kappa, L234A L235A, N297A)
heavy: B1 heavy with A111Y
chain: B1 chain
light: B1 light with E27Q
notes: single-arm

target: T1, soluble human CD3ε chain (human, UniProt P07766 23-126, limits assumed); experiment: SPR (Biacore)
T1 construct: the text says soluble human CD3ε chain; also called human CD3 epsilon chain
T1 sequence (P07766 23-126 limits assumed): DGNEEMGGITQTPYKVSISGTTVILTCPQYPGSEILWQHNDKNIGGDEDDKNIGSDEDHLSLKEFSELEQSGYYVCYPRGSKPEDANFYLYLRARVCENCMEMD

| Binder | Kd [nM] |
| --- | --- |
| B1 | 38.6 |
| B2 | 44.8 |
| B3 | 29.1 |
| B4 | 20.4 |
| B5 | 45.1 |
| B6 | 24.6 |
| B7 | 40.1 |
| B8 | 10.2 |
| B9 | 18.1 |
| B10 | 29.3 |
| B11 | 3.58 |
| B12 | 5.64 |
| B13 | 15.2 |
| B14 | 45.2 |
| B15 | 42.3 |
| B16 | 24 |
| B17 | 41.5 |
| B18 | 2.91 |

| Binder | Kd [nM] |
| --- | --- |
| B19 | 35.6 |
| B20 | 3.48 |
| B21 | 67.9 |
| B22 | 32.8 |
| B23 | 35.2 |
| B24 | 21.5 |
| B25 | 3.2 |
| B26 | 42.2 |
| B27 | 57.6 |
| B28 | 52.2 |
| B29 | 23.1 |
| B30 | 39.5 |
| B31 | 35.7 |
| B32 | 62.7 |
| B33 | 2.17 |
| B34 | 2.81 |
| B35 | 2.52 |
| B36 | 31.6 |
